Reference: article PMC11285730 (Open Biology, 2024)

B1: B5-5 monomer (VHH)
VHH: QVQLVESGGGLVQPGGSLRLSCAVFGSTLDNYSVGWFRQLPGKEREGLACFSRRYGAPYYADSAKDRFTISRDNAKNTVDLQLNGLKPEDTAVYYCATRSGPYCTTSVSDFDDWGRGTQVTVSS
B2: H6 monomer (VHH)
VHH: QVQLVESGGGLVQPGGSLTLSCVASESSLAPYRVAWFRQAPGKEREGVSCISRDAHPTSTYYTASVKGRFTMSRDNAKNTVYLQMNSLKPSDTAVYYCATDLGGYCSDSNYPRAWWGQGTQVTVSS
B3: A8 monomer (VHH)
VHH: QVQLVESGGGLVQAGGSLRLSCAASGGTFSTAAMGWFRQAPGEERECVASIGWRGVRTWYADSVKGRFTISRDNPQNTVYLQMNNLKSGDTAVYYCAASVGNYGLPWAHFEYDFWGQGIQVTVSS

Tests used:
Assay in all cases: BLI
Conditions in all cases: both partners purified
[1] = biological target: T1, SARS-CoV-2 Omicron BA.4/5 RBD, biotin-tagged (SARS-CoV-2 Omicron BA.4/5, S371F | S375F | D405N | R408S | L452R | E484A | F486V | N501Y, biotin)
T1 construct: source: Expi293, purified

[2] = biological target: T2, SARS-CoV-2 Omicron BA.1 RBD, biotin-tagged (SARS-CoV-2 Omicron BA.1, S371L | S375F | K/V417N | S477N | E484A | N501Y | Y505H, biotin)
T2 construct: source: Expi293, purified

[3] = biological target: T3, SARS-CoV-2 Beta RBD, biotin-tagged (SARS-CoV-2 Beta (B.1.351), E484K | N501Y, biotin)
T3 construct: source: Expi293, purified

Row | Binder | Kd [1] [nM] | koff [1] [s⁻¹] | kon [1] [M⁻¹ s⁻¹] | Kd [2] [nM] | koff [2] [s⁻¹] | kon [2] [M⁻¹ s⁻¹] | Kd [3] [nM] | koff [3] [s⁻¹] | kon [3] [M⁻¹ s⁻¹]
1 | B1 | 0.684 | 0.000129 | 190000 | 0.355 | 0.000204 | 576000 | 0.0655 | 1.29e-05 | 216000
2 | B2 | 7.08 | 0.00235 | 333000 | 22.7 | 0.00553 | 245000 | 0.677 | 0.000337 | 498000
3 | B3 | 8.1 | 0.00283 | 349000 | 15.7 | 0.0053 | 343000 | 0.889 | 0.000289 | 326000
